Common to all, as to test: two-hybrid library CCmax;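 also: natural log of median RNA to DNA barcode read ratio; higher means stronger binding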
One experiment addresses T1, 4H1136-AA.
T1 chain: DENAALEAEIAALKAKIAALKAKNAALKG
The note with it: mean of both orientations.

The next experiment has as its target T2, 4H_APH.
T2 chain: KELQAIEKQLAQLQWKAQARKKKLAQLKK
The note with it: mean of both orientations.

Another experiment concerns the target T3, 4H895-AA.
T3 chain: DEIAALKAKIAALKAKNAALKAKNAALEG
The note with it: mean of both orientations.

A further experiment addresses T4, 4H1257-AA.
T4 chain: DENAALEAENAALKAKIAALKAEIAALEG
The note with it: mean of both orientations.

The target of a further experiment is 4H_GCN4.
Chain of 4H_GCN4 (chain, as listed by the source): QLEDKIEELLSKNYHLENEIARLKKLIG
For another experiment, the target named is T5, 4H3782-AA.
T5 chain: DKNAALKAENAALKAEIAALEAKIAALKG
The settings on record: mean of both orientations.

Another experiment has as its target T6, 4H2750-AA.
T6 chain: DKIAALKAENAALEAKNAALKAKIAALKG
The note with it: mean of both orientations.

The next experiment has as its target T7, 4H535-AA.
T7 chain: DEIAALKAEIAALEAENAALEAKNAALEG
The settings on record: mean of both orientations.

Another experiment has as its target T8, 4H3651-AA.
T8 chain: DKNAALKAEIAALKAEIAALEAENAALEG
The note with it: mean of both orientations.

The target of a further experiment is T9, 4H486-AA.
T9 chain: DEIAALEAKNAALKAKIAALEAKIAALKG
The note with it: mean of both orientations.

For another experiment, the target named is T10, 4H1110-AA.
T10 chain: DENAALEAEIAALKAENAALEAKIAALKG

A further experiment has as its target GCN2_T.
The next experiment has as its target T11, 4H_BCR.
T11 chain: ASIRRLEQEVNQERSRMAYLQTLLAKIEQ
The settings on record: mean of both orientations.

For the next experiment, the target named is T12, 4H2600-AA.
T12 chain: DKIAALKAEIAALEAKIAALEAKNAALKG
The note with it: mean of both orientations.

Another experiment addresses T13, 4H355-AA.
T13 chain: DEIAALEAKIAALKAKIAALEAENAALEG
The settings on record: mean of both orientations.

Another experiment concerns the target T14, 4H3020-AA.
T14 chain: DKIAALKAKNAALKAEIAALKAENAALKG
The note with it: mean of both orientations.

The target in another experiment is T15, 4H2898-AA.
T15 chain: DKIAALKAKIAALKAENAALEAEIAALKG
The settings on record: mean of both orientations.

A further experiment deals with T16, 4H58-AA.
T16 chain: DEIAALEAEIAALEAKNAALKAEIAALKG
The note with it: mean of both orientations.

For the next experiment, the target named is T17, 4H2721-AA.
T17 chain: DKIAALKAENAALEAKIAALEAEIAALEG
The note with it: mean of both orientations.

The next experiment concerns the target T18, 4H1802-AA.
T18 chain: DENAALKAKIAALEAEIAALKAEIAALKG
The note with it: mean of both orientations.

The target of another experiment is T19, 4H465-AA.
T19 chain: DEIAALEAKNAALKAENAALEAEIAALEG
The note with it: mean of both orientations.

The next experiment has as its target T20, 4H140-AA.
T20 chain: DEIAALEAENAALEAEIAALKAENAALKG
The note with it: mean of both orientations.

Another experiment has as its target T21, 4H3365-AA.
T21 chain: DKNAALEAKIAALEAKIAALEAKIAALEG
The settings on record: mean of both orientations.

The next experiment deals with T22, 4H3705-AA.
T22 chain: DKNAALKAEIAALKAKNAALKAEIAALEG
The note with it: mean of both orientations.

Another experiment concerns the target T23, Core_NNNN-es_KKEE.
T23 chain: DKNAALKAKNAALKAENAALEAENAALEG
The note with it: mean of both orientations.

Turning to DENAALEAEIAALKAENAALEAKIAALKG [4H1110-AA], the interaction score with 4H1136-AA was -1.36; with 4H_APH it was -1.53; with 4H895-AA, 0.133; with 4H1257-AA, -0.798; with 4H_GCN4, -0.932; with 4H3782-AA, -0.707. Also, the interaction score in the experiment with 4H2750-AA was -0.176; with 4H535-AA, -1.39; in the experiment with 4H3651-AA, -1.2; with 4H486-AA, 1.93; with 4H1110-AA, 0.405; in the experiment with GCN2_T, -0.988. The interaction score was 0.0686 with 4H_BCR; -1.01 with 4H2600-AA; -0.0666 with 4H355-AA; 1.51 in the experiment with 4H3020-AA; 1.96 with 4H2898-AA; 1.28 with 4H58-AA. Besides, the interaction score in the experiment with 4H2721-AA was -0.718; with 4H1802-AA, -1.32; in the experiment with 4H465-AA, -1.11; with 4H140-AA, -1.14; with 4H3365-AA it was -1.2; in the experiment with 4H3705-AA, 2.63.

In turn, DENAALEAENAALEAKNAALKAKNAALKG [Core_NNNN-es_EEKK] showed an interaction score in the experiment with Core_NNNN-es_KKEE of 0.234.

For the origin of these results see article PMC10397247.
